1 substance from article PMC7901023 can be followed below.

The experiment addresses FOXA1-ΔHx (UniProt P35582). Nature of the experiment: pull-down.

As to “H3/H4 tetramers (from UniProt P84233;P62799) (complex)”, the pull-down relative to wild-type FOXA1 (fraction of wild type) worked out at 0.33.
